Measured values taken from the supplement of paper PMC9112550, “Optimization of the antimicrobial peptide Bac7 by deep mutational scanning” (BMC Biology, 2022).

system: Escherichia coli TOP10; assay: shrunken log2 fold change of peptide-encoding DNA abundance (4.5 h post-induction vs induction); higher = less antimicrobial activity (less host growth inhibition); settings: time post-induction: 4.5 h; library: site-saturation at positions 5, 18, 19, 20
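Note: peptides expressed intracellularly from a pBAD plasmid library in pooled LB shake-flask culture, induced with 0.3% L-arabinose, DNA abundance read by NGS, three biological replicates, DESeq2 with apeglm shrinkage.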

Sequence | shrunken log2 fold change
RRIRKRPPRLPRPRPRPSMRPRP | 0.915
RRIRWRPPRLPRPRPRPIMTPRP | -0.00859
RRIRIRPPRLPRPRPRPSFMPRP | -0.871
RRIRIRPPRLPRPRPRPKNNPRP | -0.878
RRIRSRPPRLPRPRPRPSWKPRP | -0.0985
RRIRVRPPRLPRPRPRPHAPPRP | 0.26
RRIRCRPPRLPRPRPRPSKEPRP | 0.0893
RRIRSRPPRLPRPRPRPMLPPRP | -0.078
RRIRIRPPRLPRPRPRPRPIPRP | 0.0745
RRIRVRPPRLPRPRPRPQHFPRP | 0.0726
RRIRYRPPRLPRPRPRPYWIPRP | -0.222
RRIRCRPPRLPRPRPRPIDMPRP | -0.175
RRIRARPPRLPRPRPRPAMTPRP | 0.356
RRIRNRPPRLPRPRPRPEKHPRP | -0.287
RRIRMRPPRLPRPRPRPIAMPRP | 0.0028
RRIRRRPPRLPRPRPRPQQGPRP | 0.0446
RRIRYRPPRLPRPRPRPGHTPRP | -0.626
RRIRYRPPRLPRPRPRPHYYPRP | 0.0204
RRIRVRPPRLPRPRPRPIEHPRP | -0.168
RRIRMRPPRLPRPRPRPYAHPRP | 0.013
RRIRMRPPRLPRPRPRPQRWPRP | 0.637
RRIRKRPPRLPRPRPRPIKSPRP | 3.22
RRIRGRPPRLPRPRPRPWEQPRP | 0.724

Sequence | shrunken log2 fold change
RRIRNRPPRLPRPRPRPLYEPRP | -0.675
RRIRSRPPRLPRPRPRPPATPRP | 0.725
RRIRDRPPRLPRPRPRPPFDPRP | 0.422
RRIRRRPPRLPRPRPRPDASPRP | 0.0354
RRIRHRPPRLPRPRPRPCGSPRP | -0.153
RRIRYRPPRLPRPRPRPQYYPRP | -1.52
RRIRGRPPRLPRPRPRPWCQPRP | 0.224
RRIRVRPPRLPRPRPRPHTWPRP | -0.351
RRIRMRPPRLPRPRPRPNANPRP | 0.777
RRIRQRPPRLPRPRPRPMWCPRP | -0.339
RRIRHRPPRLPRPRPRPSQDPRP | -0.032
RRIRVRPPRLPRPRPRPYNWPRP | -0.603
RRIRWRPPRLPRPRPRPIIIPRP | 0.117
RRIRQRPPRLPRPRPRPGCNPRP | -0.0136
RRIRDRPPRLPRPRPRPTTCPRP | 0.463
RRIRVRPPRLPRPRPRPFLIPRP | -0.777
RRIRWRPPRLPRPRPRPRLTPRP | 0.307
RRIRCRPPRLPRPRPRPRTVPRP | 0.0809
RRIRSRPPRLPRPRPRPIKSPRP | 0.041
RRIRARPPRLPRPRPRPFEPPRP | 0.276
RRIRVRPPRLPRPRPRPHHLPRP | -0.24
RRIRTRPPRLPRPRPRPELAPRP | 0.188
RRIRTRPPRLPRPRPRPMVTPRP | 0.06

Sequence | shrunken log2 fold change
RRIRVRPPRLPRPRPRPANYPRP | -0.241
RRIRCRPPRLPRPRPRPHMMPRP | -1.12
RRIRFRPPRLPRPRPRPKTVPRP | -0.117
RRIRFRPPRLPRPRPRPILYPRP | -0.7
RRIRVRPPRLPRPRPRPGSEPRP | 0.168
RRIRERPPRLPRPRPRPPPAPRP | 0.365
RRIRYRPPRLPRPRPRPMHPPRP | -0.0223
RRIRTRPPRLPRPRPRPCGCPRP | 0.0633
RRIRNRPPRLPRPRPRPMAQPRP | 0.0103
RRIRARPPRLPRPRPRPCYYPRP | -0.508
RRIRVRPPRLPRPRPRPQHMPRP | -0.23
RRIRWRPPRLPRPRPRPTYCPRP | -0.126
RRIRCRPPRLPRPRPRPNFSPRP | -0.382
RRIRERPPRLPRPRPRPPYKPRP | -0.107
RRIRHRPPRLPRPRPRPKPEPRP | 0.0966
RRIRVRPPRLPRPRPRPAHKPRP | -0.0968
RRIRRRPPRLPRPRPRPLIRPRP | -0.295
RRIRNRPPRLPRPRPRPSVHPRP | -0.311
RRIRRRPPRLPRPRPRPCKAPRP | 0.122
RRIRMRPPRLPRPRPRPLEIPRP | 0.103
RRIRQRPPRLPRPRPRPGMIPRP | -0.446
RRIRYRPPRLPRPRPRPWWVPRP | -0.0131
RRIRKRPPRLPRPRPRPNWCPRP | -0.0436

Sequence | shrunken log2 fold change
RRIRKRPPRLPRPRPRPTMWPRP | 0.643
RRIRLRPPRLPRPRPRPWHMPRP | 0.041
RRIRVRPPRLPRPRPRPVLPPRP | 0.0268
RRIRERPPRLPRPRPRPFCEPRP | -0.0162
RRIRYRPPRLPRPRPRPYCYPRP | -1.12
RRIRYRPPRLPRPRPRPMHCPRP | -0.0557
RRIRTRPPRLPRPRPRPMELPRP | -0.172
RRIRDRPPRLPRPRPRPAFHPRP | -0.193
RRIRSRPPRLPRPRPRPLMNPRP | -0.204
RRIRGRPPRLPRPRPRPEPKPRP | 0.45
RRIRHRPPRLPRPRPRPMQMPRP | -0.00907
RRIRWRPPRLPRPRPRPNTYPRP | 0.0764
RRIRFRPPRLPRPRPRPPEFPRP | 0.12
RRIRIRPPRLPRPRPRPSSYPRP | -0.207
RRIRRRPPRLPRPRPRPDEPPRP | -0.0328
RRIRPRPPRLPRPRPRPEKGPRP | 0.321
RRIRWRPPRLPRPRPRPFHVPRP | -0.0106
RRIRQRPPRLPRPRPRPKFHPRP | -0.0648
RRIRIRPPRLPRPRPRPDWWPRP | -0.00879
RRIRMRPPRLPRPRPRPPNNPRP | 0.436
RRIRQRPPRLPRPRPRPDDYPRP | 0.0372
RRIRVRPPRLPRPRPRPQFPPRP | -0.28
